Publication PMC9631798 (2022)
Several values for one entry are separate records, joined by “and”; a condition that tells them apart may be missing. Equal entries are not always repeated.

How the values were obtained:
[1] = biological target: hIL-2/F5111 complex (1:1 molar ratio) (human, UniProt P60568 21-153); experiment: BLI
F5111.2 IC LN35 = F5111.2 IC LN35 (human, UniProt P60568 21-153); experiment: BLI
F5111 IC LN15 = F5111 IC LN15 (human, UniProt P60568 21-153); experiment: BLI
[2] = biological target: Control (FITC-E2) IC LN35 (human, UniProt P60568 21-153); experiment: BLI
F5111 IC LN25 = F5111 IC LN25 (human, UniProt P60568 21-153); experiment: BLI
[3] = biological target: hIL-2/F5111.2 complex (1:1 molar ratio) (human, UniProt P60568 21-153); experiment: BLI
F5111 IC LN35 = F5111 IC LN35 (human, UniProt P60568 21-153); experiment: BLI
Biotinylated human IL-2 [4] = biological target: T1, Biotinylated human IL-2 (human, UniProt P60568 21-153, biotin on the biotin acceptor peptide (BirA ligase)); experiment: BLI
Biotinylated human IL-2 [5] = biological target: T1, Biotinylated human IL-2; experiment: BLI; Fig S1E
[6] = biological target: yeast-displayed hIL-2 (residues 1-133) (human, UniProt P60568 21-153); experiment: FACS; yeast surface display
Sequence of yeast-displayed hIL-2 (residues 1-133) (P60568 21-153): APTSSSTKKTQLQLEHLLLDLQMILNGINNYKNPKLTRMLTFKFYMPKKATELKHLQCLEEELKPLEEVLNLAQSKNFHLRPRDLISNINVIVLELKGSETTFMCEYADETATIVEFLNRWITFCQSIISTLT

T1 sequence (P60568 21-153): as above

| Binder | Kd [1] [nM] | Kd (F5111.2 IC LN35) [nM] | Kd (F5111 IC LN15) [nM] | Kd [2] | Kd (F5111 IC LN25) [nM] | Kd [3] [nM] | Kd (F5111 IC LN35) | Kd (Biotinylated human IL-2 [4]) [nM] | Kd (Biotinylated human IL-2 [5]) [nM] | Kd [6] [nM] |
| --- | --- | --- | --- | --- | --- | --- | --- | --- | --- | --- |
| F5111.2 Antibody (N297A) (antibody, V domains shown) VH: QLQLQESGPGLVKPSQTLSLTCTVSGGSISSGGYYWSWIRQHPGKGLEWIGYIYKSGSAYYSPSLKSRVTISVDTSKNQFSLKLSSVTAADTAVYYCARTPTVTGDWFDPWGRGTLVTVSS VL: NFMLTQPHSVSESPGKTVTISCTRSSGSIASNYVQWYQQRPGSSPTTVIYEDNQRPSGVPDRFSGSIDSSSNSASLTISGLKTEDEADYYCQTYDSIDVYFGGGTKLTVL | – | – | – | – | – | – | – | 4.9 | – | – |
| Biotinylated human IL-2Rα extracellular domain (residues 1-217) (receptor, biotin on the biotin acceptor peptide (BirA ligase)) ELCDDDPPEIPHATFKAMAYKEGTMLNCECKRGFRRIKSGSLYMLCTGNSSHSSWDNQCQCTSSATRNTTKQVTPQPEEQKERKTTEMQSPMQPVDQASLPGHCREPPPWENEATERIYHFVVGQMVYYQCVQGYRALHRGPAESVCKMTHGKTRWTQPQLICTGEMETSQFPGEEKPQASPEGRPESETSCLVTTTDFQIQTEMAATMETSIFTTE | 18 | 2.4 | 7.5 | 2.5 nM and 3.4 nM | – | 68 | 3.2 nM and 3 nM | – | – | – |

More lines, now with the values ahead:

| Kd [1] [nM] | Kd (F5111.2 IC LN35) [nM] | Kd (F5111 IC LN15) [nM] | Kd [2] | Kd (F5111 IC LN25) [nM] | Kd [3] [nM] | Kd (F5111 IC LN35) | Kd (Biotinylated human IL-2 [4]) [nM] | Kd (Biotinylated human IL-2 [5]) [nM] | Kd [6] [nM] | Binder |
| --- | --- | --- | --- | --- | --- | --- | --- | --- | --- | --- |
| > 2000 | > 2000 | 210 | 4.1 nM and 4.4 nM | > 2000 | > 2000 | > 2000 nM | – | – | – | Biotinylated human IL-2Rβ extracellular domain (residues 1-214) (receptor, biotin on the biotin acceptor peptide (BirA ligase)) AVNGTSQFTCFYNSRANISCVWSQDGALQDTSCQVHAWPDRRRWNQTCELLPVSQASWACNLILGAPDSQKLTTVDIVTLRVLCREGVRWRVMAIQDFKPFENLRLMAPISLQVVHVETHRCNISWEISQASHYFERHLEFEARTLSPGHTWEEAPLLTLKQKQEWICLETLTPDTQYEFQVRVKPLQGEFTTWSPWSQPLAFRTKPAALGKDT |
| – | – | – | – | – | – | – | 2.7 | 2.1 | 0.42 | F5111 antibody (antibody, V domains shown) VH: QLQLQESGPGLVKPSQTLSLTCTVSGGSISSGGYYWSWIRQHPGKGLEWIGYIYYSGSTYYNPSLKSRVTISVDTSKNQFSLKLSSVTAADTAVYYCARTPTVTGDWFDPWGRGTLVTVSS VL: NFMLTQPHSVSESPGKTVTISCTRSSGSIASNYVQWYQQRPGSSPTTVIYEDNQRPSGVPDRFSGSIDSSSNSASLTISGLKTEDEADYYCQSYDSSNVVFGGGTKLTVL |
